In patent US10005846 (LIFEARC, dated 2018):

Assays:
[1] = molecular target: T1, TG3 (human, UniProt Q08188); assay: ELISA, purified IgG at 0.1 ug/ml, plates coated with 100 ng of each TG [panel B]
T1 construct: recombinant, Zedira; also called recombinant human TG3; Epidermal Transglutaminase
T1 sequence (enzyme, looked up): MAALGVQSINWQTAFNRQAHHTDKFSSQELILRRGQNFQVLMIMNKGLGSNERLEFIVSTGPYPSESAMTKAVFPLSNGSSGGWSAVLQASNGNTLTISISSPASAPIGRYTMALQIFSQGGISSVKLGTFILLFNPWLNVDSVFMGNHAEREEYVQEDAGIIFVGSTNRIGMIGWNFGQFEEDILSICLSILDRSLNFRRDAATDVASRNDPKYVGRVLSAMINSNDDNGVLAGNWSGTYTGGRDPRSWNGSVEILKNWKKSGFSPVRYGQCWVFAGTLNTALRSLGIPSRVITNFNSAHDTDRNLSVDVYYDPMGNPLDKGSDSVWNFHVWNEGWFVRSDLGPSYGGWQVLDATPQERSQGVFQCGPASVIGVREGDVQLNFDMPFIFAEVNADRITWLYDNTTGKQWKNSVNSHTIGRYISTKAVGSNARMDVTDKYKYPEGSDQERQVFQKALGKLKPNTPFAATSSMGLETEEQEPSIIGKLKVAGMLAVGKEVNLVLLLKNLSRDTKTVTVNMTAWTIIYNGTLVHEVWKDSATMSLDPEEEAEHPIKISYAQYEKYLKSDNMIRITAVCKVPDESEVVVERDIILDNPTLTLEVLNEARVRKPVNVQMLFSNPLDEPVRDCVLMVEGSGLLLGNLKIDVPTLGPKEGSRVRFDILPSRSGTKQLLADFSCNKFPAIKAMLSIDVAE
Description: (§1) Conditioned medium or purified IgG were tested for reactivity to transglutaminase family members. The ability of each to bind to each transglutaminase (TG1, TG2, TG3, TG5, TG7 and Factor XIIIa; all Zedira) was determined using a plate binding assay. Microtiter plates (Costar, Cambridge, UK) were coated with recombinant TG (Zedira, Darmstadt, Germany) in 50 μl of 0.1 M bicarbonate/carbonate buffer (pH 9.6) overnight at 4° C. Plates were blocked for 2 h at 37° C. with 200 μl PBS containing 3% w/v BSA. Plates were washed three times with PBS containing 0.05% Tween 20 (washing buffer) and 100 μl of diluted conditioned medium (dilution 1:5 to 1:20) or purified anti-TG2 catalytic core mAbs was added. Plates were incubated for a further 1 h at room temperature. The washing step was repeated and anti-mouse gamma chain-horseradish peroxidase (1:5000) in PBS containing 0.05% Tween 20 (v:v) and 1% BSA (w:v) (Sigma, Poole UK) was added for 1 h. […] The reaction was stopped by adding 25 μl of 0.1 M H_2SO_4 and the absorbance at 450 nm was determined.

[2] = molecular target: T2, TG13; assay: as above
T2 construct: also called Factor XIIIa
T2 chain: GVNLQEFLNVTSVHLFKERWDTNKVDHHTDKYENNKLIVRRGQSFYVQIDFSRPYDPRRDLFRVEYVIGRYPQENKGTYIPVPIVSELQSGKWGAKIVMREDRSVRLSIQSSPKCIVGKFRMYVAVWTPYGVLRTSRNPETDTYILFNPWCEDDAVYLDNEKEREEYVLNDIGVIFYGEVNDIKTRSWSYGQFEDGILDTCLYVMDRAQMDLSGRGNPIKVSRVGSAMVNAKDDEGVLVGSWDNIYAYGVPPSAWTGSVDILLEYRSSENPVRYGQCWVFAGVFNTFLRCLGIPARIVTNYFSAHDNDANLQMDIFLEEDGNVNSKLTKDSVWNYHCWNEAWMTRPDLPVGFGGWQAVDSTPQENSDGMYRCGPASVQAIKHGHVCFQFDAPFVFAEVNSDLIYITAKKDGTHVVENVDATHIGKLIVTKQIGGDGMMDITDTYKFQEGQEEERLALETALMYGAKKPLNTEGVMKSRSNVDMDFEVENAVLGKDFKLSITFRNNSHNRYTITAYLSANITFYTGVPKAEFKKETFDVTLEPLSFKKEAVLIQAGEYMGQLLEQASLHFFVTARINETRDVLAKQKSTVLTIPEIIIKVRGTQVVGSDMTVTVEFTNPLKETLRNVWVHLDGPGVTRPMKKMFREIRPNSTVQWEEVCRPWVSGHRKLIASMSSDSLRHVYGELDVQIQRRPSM
Description: as §1

binding result [1]: no binding (tested: 0.1 ug/ml)
binding result [2]: no binding (tested: 0.1 ug/ml)
B1: DC1 murine monoclonal antibody (antibody, V domains shown)
VH: EVQLVESGGGLVKPGGSLKLSCAASGFTLSTHAMSWVRQTPEKRLEWVATISSGGRSTYYPDSVKGRFTISRDNVKNTLYLQLSSLRSEDTAVYFCARLISTYWGQGTTLTVSS
VL: DITMTQSPSSIYASLGERVTITCKASQDINSYLTWFQQKPGKSPKILIYLVNRLVDGVPSRFSGSGSGQDYALTISSLEYEDMGIYYCLQYDDFPYTFGGGTKLEIK
notes: Mouse hybridoma IgG; heavy chain amplified with primer MHCG1, kappa light chain; also called mDC001
